Where a chain is given by its changes, count along the chain named.
B1: 6H7 (antibody, V domains shown)
VH: QVQLVESGGGLVKPGGSLRLSCAGSGFTFSDHYMSWIRQAPGKGLEWVSYISTSGRTIFYVDSVKGRFTISRDNAKNSLYLQMNSLRAEDMAVYYCASDYYDNVGWNYWGQGALVIVSS
VL: DVVLTQSPLSLPVTLGQPASISCRSSQSLVYSDGNTYLNWFQQRPGQSPRRLIYKVSDRDFGVPDRFSGSGSGTDFTLKISRVEAEDVGIYYCMQGTHWPRTFGQGTKVEIK
B2: 8C3 (antibody, V domains shown)
VH: B1 VH with G24A, F59H, V61A, N107D, A113T, I116T
VL: B1 VL with L4M, V30L, F61S, E86D, I90V, T97A
B3: 5G5 (antibody, V domains shown)
VH: LVQLVESGGGLVKPGGSLRLSCTASGITFSDLYMSWIRQSPGKGLEWISYISTSGRTIYYTDSVKGRFTISRDNAKNSLFLQMNRLRADDTAVYYCAGDYYDNSGWDYWGRGTLVTVSS
VL: B1 VL with D1N, L4M, T14A, S26G, F61S
B4: 6G5 (antibody, V domains shown)
VH: QVQLVQSGAEVKKPGASVKVSCKASGYTFTNYDIHWVRQAAGQGLEWMGWTNPNSGNSDYAQKFQGRVSMTRDTSMRTMYMELNSLRSEDTAVYFCARKIWVGTTIFDYWGQGTLVTVSS
VL: DIQMTQSPSSLSASVGDRVTIACRASQSIYRFLSWYQQKPGTAPKLLIFAVSSLQSGVPSRFSGSGSGTDFTLTISSLHPEDFAIYYCQQSDSPPLTFGGGTKVGIK

Molecular target: JCV major capsid protein VP1, wild type (John Cunningham virus (JCV)) (UniProt P03089)
Assay: cell-based or functional assay

Chain of JCV major capsid protein VP1, wild type (John Cunningham virus (JCV)) (P03089 whole entry): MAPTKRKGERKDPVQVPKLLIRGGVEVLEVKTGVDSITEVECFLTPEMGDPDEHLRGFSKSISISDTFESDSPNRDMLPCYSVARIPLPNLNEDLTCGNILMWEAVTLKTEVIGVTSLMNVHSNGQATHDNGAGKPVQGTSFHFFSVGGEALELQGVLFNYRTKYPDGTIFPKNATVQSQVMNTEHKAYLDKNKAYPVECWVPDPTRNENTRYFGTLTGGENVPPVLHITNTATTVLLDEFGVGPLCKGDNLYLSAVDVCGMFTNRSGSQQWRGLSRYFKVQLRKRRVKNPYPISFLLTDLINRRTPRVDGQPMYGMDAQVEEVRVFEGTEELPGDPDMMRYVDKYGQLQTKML

Row | Binder | Neutralization of WT JCV: EC50 [pM]
1 | B1 | 0.5 pM
2 | B2 | 14 pM
3 | B3 | 0.4 pM
4 | B4 | 3.1 pM

Reference: patent US20220356228A1
